Reference: patent US20150196666A1
Blank lines part the entries; values can stand above or below the molecule they belong to.

Experiments:
[1] = biological target: CD74 (invariant chain, Ii) (human) (UniProt P04233); experiment: cell binding assay on antigen-positive cells
[2] = biological target: human trophoblast cell-surface antigen (TROP-2) (human) (UniProt P09758); experiment: cell binding assay on TROP-2-expressing cells
CD20 (human) [3] = biological target: CD20 (human) (UniProt P11836); experiment: flow cytometry, unconjugated antibody + FITC goat anti-human IgG, REH cells; background in parentheses
CD20 (human), sequence (P11836 whole entry): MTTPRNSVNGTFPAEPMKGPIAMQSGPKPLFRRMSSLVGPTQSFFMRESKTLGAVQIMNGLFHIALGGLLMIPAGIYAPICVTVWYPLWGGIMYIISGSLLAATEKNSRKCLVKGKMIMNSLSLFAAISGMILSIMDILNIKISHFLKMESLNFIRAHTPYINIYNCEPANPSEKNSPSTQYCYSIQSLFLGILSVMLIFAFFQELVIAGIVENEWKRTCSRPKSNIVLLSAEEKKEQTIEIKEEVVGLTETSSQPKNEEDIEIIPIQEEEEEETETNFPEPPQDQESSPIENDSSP

CD20 (human) [4] = biological target: CD20 (human) (UniProt P11836); experiment: flow cytometry, unconjugated antibody + FITC goat anti-human IgG, Raji cells; background in parentheses
CD20 (human) [5] = biological target: CD20 (human) (UniProt P11836); experiment: flow cytometry, unconjugated antibody + FITC goat anti-human IgG, WSU-FSCCL cells; background in parentheses
CD20 (human) [6] = biological target: CD20 (human) (UniProt P11836); experiment: flow cytometry, unconjugated antibody + FITC goat anti-human IgG, Ramos cells; background in parentheses
CD20 (human) [7] = biological target: CD20 (human) (UniProt P11836); experiment: flow cytometry, unconjugated antibody + FITC goat anti-human IgG, Jeko-1 cells; background in parentheses
CD20 (human) [8] = biological target: CD20 (human) (UniProt P11836); experiment: flow cytometry, unconjugated antibody + FITC goat anti-human IgG, MN-60 cells; background in parentheses
CD20 (human) [9] = biological target: CD20 (human) (UniProt P11836); experiment: flow cytometry, unconjugated antibody + FITC goat anti-human IgG, Daudi cells; background in parentheses
CD20 (human) [10] = biological target: CD20 (human) (UniProt P11836); experiment: flow cytometry, unconjugated antibody + FITC goat anti-human IgG, RS4;11 cells; background in parentheses
CD20 (human) [11] = biological target: CD20 (human) (UniProt P11836); experiment: flow cytometry, unconjugated antibody + FITC goat anti-human IgG, 697 cells; background in parentheses
[12] = biological target: human trophoblast cell-surface antigen (TROP-2) (human) (UniProt P09758); experiment: flow cytometry, surface binding on Capan-1 cells
[13] = biological target: human trophoblast cell-surface antigen (TROP-2) (human) (UniProt P09758); experiment: flow cytometry, surface, NCI-N87 cells
CD22 (human) [14] = biological target: CD22 (human) (UniProt P20273); experiment: flow cytometry, unconjugated antibody + FITC goat anti-human IgG, REH cells; background in parentheses
CD22 (human) [15] = biological target: CD22 (human) (UniProt P20273); experiment: flow cytometry, unconjugated antibody + FITC goat anti-human IgG, Raji cells; background in parentheses
CD22 (human) [16] = biological target: CD22 (human) (UniProt P20273); experiment: flow cytometry, unconjugated antibody + FITC goat anti-human IgG, WSU-FSCCL cells; background in parentheses
CD22 (human) [17] = biological target: CD22 (human) (UniProt P20273); experiment: flow cytometry, unconjugated antibody + FITC goat anti-human IgG, Ramos cells; background in parentheses
CD22 (human) [18] = biological target: CD22 (human) (UniProt P20273); experiment: flow cytometry, unconjugated antibody + FITC goat anti-human IgG, Jeko-1 cells; background in parentheses
CD22 (human) [19] = biological target: CD22 (human) (UniProt P20273); experiment: flow cytometry, unconjugated antibody + FITC goat anti-human IgG, MN-60 cells; background in parentheses
CD22 (human) [20] = biological target: CD22 (human) (UniProt P20273); experiment: flow cytometry, unconjugated antibody + FITC goat anti-human IgG, Daudi cells; background in parentheses
CD22 (human) [21] = biological target: CD22 (human) (UniProt P20273); experiment: flow cytometry, unconjugated antibody + FITC goat anti-human IgG, RS4;11 cells; background in parentheses
CD22 (human) [22] = biological target: CD22 (human) (UniProt P20273); experiment: flow cytometry, unconjugated antibody + FITC goat anti-human IgG, 697 cells; background in parentheses
[23] = biological target: CD74 (invariant chain, Ii) (human) (UniProt P04233); experiment: flow cytometry, permeabilized HuH-7 cells; background in parentheses
[24] = biological target: CD74 (invariant chain, Ii) (human) (UniProt P04233); experiment: flow cytometry, permeabilized HuH-7 cells
[25] = biological target: CD74 (invariant chain, Ii) (human) (UniProt P04233); experiment: flow cytometry, permeabilized Capan-1 cells; background in parentheses
[26] = biological target: CD74 (invariant chain, Ii) (human) (UniProt P04233); experiment: flow cytometry, permeabilized A-375 cells; background in parentheses
[27] = biological target: CD74 (invariant chain, Ii) (human) (UniProt P04233); experiment: flow cytometry, membrane-only CD74, Hs746T cells
[28] = biological target: CD74 (invariant chain, Ii) (human) (UniProt P04233); experiment: flow cytometry, membrane-only CD74, Hs746T cells; background (GAH-FITC only) in parentheses
[29] = biological target: CD74 (invariant chain, Ii) (human) (UniProt P04233); experiment: flow cytometry, permeabilized Capan-1 cells
[30] = biological target: CD74 (invariant chain, Ii) (human) (UniProt P04233); experiment: flow cytometry, permeabilized Hs746T cells; background in parentheses
[31] = biological target: CD74 (invariant chain, Ii) (human) (UniProt P04233); experiment: flow cytometry, membrane-only CD74, A-375 cells; background (GAH-FITC only) in parentheses
[32] = biological target: CD74 (invariant chain, Ii) (human) (UniProt P04233); experiment: flow cytometry, permeabilized Hep-G2 cells
[33] = biological target: CD74 (invariant chain, Ii) (human) (UniProt P04233); experiment: flow cytometry, membrane-only CD74, HuH-7 cells; background (GAH-FITC only) in parentheses
[34] = biological target: CD74 (invariant chain, Ii) (human) (UniProt P04233); experiment: flow cytometry, membrane-only CD74, Raji cells
[35] = biological target: CD74 (invariant chain, Ii) (human) (UniProt P04233); experiment: flow cytometry, membrane-only CD74, NCI-N87 cells; background (GAH-FITC only) in parentheses
[36] = biological target: CD74 (invariant chain, Ii) (human) (UniProt P04233); experiment: flow cytometry, membrane-only CD74, Raji cells; background (GAH-FITC only) in parentheses
[37] = biological target: CD74 (invariant chain, Ii) (human) (UniProt P04233); experiment: flow cytometry, permeabilized Raji cells
[38] = biological target: CD74 (invariant chain, Ii) (human) (UniProt P04233); experiment: flow cytometry, permeabilized Raji cells; background in parentheses
[39] = biological target: CD74 (invariant chain, Ii) (human) (UniProt P04233); experiment: flow cytometry, membrane-only CD74, Capan-1 cells
[40] = biological target: CD74 (invariant chain, Ii) (human) (UniProt P04233); experiment: flow cytometry, permeabilized NCI-N87 cells; background in parentheses
[41] = biological target: CD74 (invariant chain, Ii) (human) (UniProt P04233); experiment: flow cytometry, membrane-only CD74, A-375 cells
[42] = biological target: CD74 (invariant chain, Ii) (human) (UniProt P04233); experiment: flow cytometry, membrane-only CD74, Hep-G2 cells
[43] = biological target: CD74 (invariant chain, Ii) (human) (UniProt P04233); experiment: flow cytometry, permeabilized NCI-N87 cells
[44] = biological target: CD74 (invariant chain, Ii) (human) (UniProt P04233); experiment: flow cytometry, permeabilized Hep-G2 cells; background in parentheses
[45] = biological target: CD74 (invariant chain, Ii) (human) (UniProt P04233); experiment: flow cytometry, membrane-only CD74, Hep-G2 cells; background (GAH-FITC only) in parentheses
[46] = biological target: CD74 (invariant chain, Ii) (human) (UniProt P04233); experiment: flow cytometry, membrane-only CD74, NCI-N87 cells
[47] = biological target: CD74 (invariant chain, Ii) (human) (UniProt P04233); experiment: flow cytometry, membrane-only CD74, HuH-7 cells
[48] = biological target: CD74 (invariant chain, Ii) (human) (UniProt P04233); experiment: flow cytometry, membrane-only CD74, Capan-1 cells; background (GAH-FITC only) in parentheses
[49] = biological target: CD74 (invariant chain, Ii) (human) (UniProt P04233); experiment: flow cytometry, permeabilized A-375 cells
[50] = biological target: CD74 (invariant chain, Ii) (human) (UniProt P04233); experiment: flow cytometry, permeabilized Hs746T cells
CEACAM6 (human) [51] = biological target: CEACAM6 (human) (UniProt P40199); experiment: flow cytometry, surface, HuH-7 cells
CEACAM6 (human), sequence (P40199 35-320): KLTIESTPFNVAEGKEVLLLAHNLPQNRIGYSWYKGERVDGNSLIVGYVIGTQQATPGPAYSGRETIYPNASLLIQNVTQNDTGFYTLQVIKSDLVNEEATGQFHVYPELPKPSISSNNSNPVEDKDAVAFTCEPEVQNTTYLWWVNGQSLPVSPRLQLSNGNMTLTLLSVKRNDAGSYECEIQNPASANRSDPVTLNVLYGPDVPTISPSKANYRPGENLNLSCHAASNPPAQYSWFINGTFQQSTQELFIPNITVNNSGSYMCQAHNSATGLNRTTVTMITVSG

CEACAM6 (human) [52] = biological target: CEACAM6 (human) (UniProt P40199); experiment: flow cytometry, surface, NCI-N87 cells
CEACAM6 (human) [53] = biological target: CEACAM6 (human) (UniProt P40199); experiment: flow cytometry, Hep-G2 cells

CD74 (invariant chain, Ii) (human), sequence (P04233 whole entry, change not shown): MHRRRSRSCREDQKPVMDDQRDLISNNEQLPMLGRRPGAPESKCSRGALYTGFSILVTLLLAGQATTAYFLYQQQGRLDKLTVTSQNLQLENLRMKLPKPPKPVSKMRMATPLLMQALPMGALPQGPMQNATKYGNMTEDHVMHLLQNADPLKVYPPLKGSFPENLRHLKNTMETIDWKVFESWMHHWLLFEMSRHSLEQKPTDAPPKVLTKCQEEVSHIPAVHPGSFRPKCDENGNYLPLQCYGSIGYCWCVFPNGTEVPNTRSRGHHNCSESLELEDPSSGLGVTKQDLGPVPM
human trophoblast cell-surface antigen (TROP-2) (human), sequence (P09758 27-323): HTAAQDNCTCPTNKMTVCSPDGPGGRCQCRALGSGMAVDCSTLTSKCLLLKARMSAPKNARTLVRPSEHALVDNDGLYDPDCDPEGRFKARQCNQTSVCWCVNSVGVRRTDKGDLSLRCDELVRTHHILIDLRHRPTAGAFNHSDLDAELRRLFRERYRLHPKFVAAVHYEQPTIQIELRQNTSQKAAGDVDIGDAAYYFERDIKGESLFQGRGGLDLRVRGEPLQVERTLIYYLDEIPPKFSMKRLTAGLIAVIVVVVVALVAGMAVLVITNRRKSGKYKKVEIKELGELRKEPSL

median fluorescence (CD20 (human) [3]): 12.3
median fluorescence (CD20 (human) [4]): 422
median fluorescence (CD20 (human) [5]): 97.4
median fluorescence (CD20 (human) [6]): 620
median fluorescence (CD20 (human) [7]): 605
median fluorescence (CD20 (human) [8]): 21.5
median fluorescence (CD20 (human) [9]): 815
median fluorescence (CD20 (human) [10]): 3.7
median fluorescence (CD20 (human) [11]): 6.9
Molecule: veltuzumab (hA20), humanized anti-CD20 IgG1 (antibody)

median fluorescence (CD22 (human) [14]): 22.9
median fluorescence (CD22 (human) [15]): 45.9
median fluorescence (CD22 (human) [16]): 7.7
median fluorescence (CD22 (human) [17]): 40.8
median fluorescence (CD22 (human) [18]): 11.2
median fluorescence (CD22 (human) [19]): 10.3
median fluorescence (CD22 (human) [20]): 145
median fluorescence (CD22 (human) [21]): 23.3
median fluorescence (CD22 (human) [22]): 16
Molecule: epratuzumab (hLL2), humanized anti-CD22 IgG1 (antibody)

MFI (surface and cytoplasmic) [23]: 114
MFI Ratio hLL1:bkgd (surface and cytoplasmic) [24]: 28.5
MFI (surface and cytoplasmic) [25]: 248
MFI (surface and cytoplasmic) [26]: 185
MFI Ratio hLL1:bkgd (surface) [27]: 2.1
MFI (surface) [28]: 17
MFI Ratio hLL1:bkgd (surface and cytoplasmic) [29]: 49.6
MFI (surface and cytoplasmic) [30]: 144
MFI (surface) [31]: 16
MFI Ratio hLL1:bkgd (surface and cytoplasmic) [32]: 31.2
MFI (surface) [33]: 8
MFI Ratio hLL1:bkgd (surface) [34]: 19.6
MFI (surface) [35]: 5
MFI (surface) [36]: 59
MFI Ratio hLL1:bkgd (surface and cytoplasmic) [37]: 28.6
MFI (surface and cytoplasmic) [38]: 143
MFI Ratio hLL1:bkgd (surface) [39]: 1.8
MFI (surface and cytoplasmic) [40]: 220
MFI Ratio hLL1:bkgd (surface) [41]: 5.3
MFI Ratio hLL1:bkgd (surface) [42]: 1.5
MFI Ratio hLL1:bkgd (surface and cytoplasmic) [43]: 36.7
MFI (surface and cytoplasmic) [44]: 156
MFI (surface) [45]: 9
MFI Ratio hLL1:bkgd (surface) [46]: 1.3
MFI Ratio hLL1:bkgd (surface) [47]: 1.6
MFI (surface) [48]: 22
Kd [1]: 0.77 nM
MFI Ratio hLL1:bkgd (surface and cytoplasmic) [49]: 30.8
MFI Ratio hLL1:bkgd (surface and cytoplasmic) [50]: 28.8
Molecule: milatuzumab (hLL1), humanized anti-CD74 IgG1 (antibody)

More lines, now with the values behind:

Molecule: milatuzumab-CL2E-SN-38 (antibody)
Kd [1]: 0.8 nM

Molecule: hRS7-CL2-SN-38 (hRS7 IgG conjugated to SN-38 through the CL2 linker) (antibody)
Kd [2]: 1.2 nM

Molecule: milatuzumab-CL2A-SN-38 (antibody)
Kd [1]: 0.59 nM

Molecule: hRS7-CL2A-SN-38 (hRS7 IgG conjugated to SN-38 through the CL2A linker) (antibody)
Kd [2]: 1.2 nM

Molecule: humanized RS7 IgG (hRS7), anti-TROP-2 (anti-EGP-1) humanized antibody
MFI (surface) [12]: 237
MFI (surface) [13]: 795

B1: hMN-15, humanized anti-CEACAM6 IgG1 (antibody, from a related filing, V domains shown)
VH: QVQLVESGGGVVQPGRSLRLSCSSSGFALTDYYMSWVRQAPGKGLEWLGFIANKANGHTTDYSPSVKGRFTISRDNSKNTLFLQMDSLRPEDTGVYFCARDMGIRWNFDVWGQGTPVTVSS
VL: DIQLTQSPSSLSASVGDRVTMTCSASSRVSYIHWYQQKPGKAPKRWIYGTSTLASGVPARFSGSGSGTDFTFTISSLQPEDIATYYCQQWSYNPPTFGQGTKVEIKR
MFI (surface) (CEACAM6 (human) [51]): 81
MFI (surface) (CEACAM6 (human) [52]): 1120
MFI (CEACAM6 (human) [53]): 175
